Reference: IntAct's records for PubMed 29892012

B1: MOB kinase activator 3C (Homo sapiens), Q70IA8 (parent)
chain: MALCLKQVFAKDKTFRPRKRFEPGTQRFELYKKAQASLKSGLDLRSVVRLPPGENIDDWIAVHVVDFFNRINLIYGTMAERCSETSCPVMAGGPRYEYRWQDERQYRRPAKLSAPRYMALLMDWIEGLINDEEVFPTRVGVPFPKNFQQVCTKILTRLFRVFVHVYIHHFDSILSMGAEAHVNTCYKHFYYFIREFSLVDQRELEPLREMTERICH
partner: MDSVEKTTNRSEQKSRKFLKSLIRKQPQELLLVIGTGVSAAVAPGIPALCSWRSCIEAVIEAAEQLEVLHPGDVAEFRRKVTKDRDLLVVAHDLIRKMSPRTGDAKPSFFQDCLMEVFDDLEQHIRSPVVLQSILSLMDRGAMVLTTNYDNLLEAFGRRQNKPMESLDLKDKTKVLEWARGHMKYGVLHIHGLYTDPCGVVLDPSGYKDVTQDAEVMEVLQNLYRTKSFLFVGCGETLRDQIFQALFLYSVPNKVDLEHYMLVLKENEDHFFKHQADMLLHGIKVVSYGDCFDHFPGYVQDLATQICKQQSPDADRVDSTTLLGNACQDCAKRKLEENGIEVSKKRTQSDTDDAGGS
B2: Rho guanine nucleotide exchange factor 3 (Homo sapiens), Q9NR81 (parent)
chain: MVAKDYPFYLTVKRANCSLELPPASGPAKDAEEPSNKRVKPLSRVTSLANLIPPVKATPLKRFSQTLQRSISFRSESRPDILAPRPWSRNAAPSSTKRRDSKLWSETFDVCVNQMLTSKEIKRQEAIFELSQGEEDLIEDLKLAKKAYHDPMLKLSIMTEQELNQIFGTLDSLIPLHEELLSQLRDVRKPDGSTEHVGPILVGWLPCLSSYDSYCSNQVAAKALLDHKKQDHRVQDFLQRCLESPFSRKLDLWNFLDIPRSRLVKYPLLLREILRHTPNDNPDQQHLEEAINIIQGIVAEINTKTGESECRYYKERLLYLEEGQKDSLIDSSRVLCCHGELKNNRGVKLHVFLFQEVLVITRAVTHNEQLCYQLYRQPIPVKDLLLEDLQDGEVRLGGSLRGAFSNNERIKNFFRVSFKNGSQSQTHSLQANDTFNKQQWLNCIRQAKETVLCAAGQAGVLDSEGSFLNPTTGSRELQGETKLEQMDQSDSESDCSMDTSEVSLDCERMEQTDSSCGNSRHGESNV
B3: RNA-binding protein 3 (Homo sapiens), P98179 (parent)
chain: MSSEEGKLFVGGLNFNTDEQALEDHFSSFGPISEVVVVKDRETQRSRGFGFITFTNPEHASVAMRAMNGESLDGRQIRVDHAGKSARGTRGGGFGAHGRGRSYSRGGGDQGYGSGRYYDSRPGGYGYGYGRSRDYNGRNQGGYDRYSGGNYRDNYDN
partner: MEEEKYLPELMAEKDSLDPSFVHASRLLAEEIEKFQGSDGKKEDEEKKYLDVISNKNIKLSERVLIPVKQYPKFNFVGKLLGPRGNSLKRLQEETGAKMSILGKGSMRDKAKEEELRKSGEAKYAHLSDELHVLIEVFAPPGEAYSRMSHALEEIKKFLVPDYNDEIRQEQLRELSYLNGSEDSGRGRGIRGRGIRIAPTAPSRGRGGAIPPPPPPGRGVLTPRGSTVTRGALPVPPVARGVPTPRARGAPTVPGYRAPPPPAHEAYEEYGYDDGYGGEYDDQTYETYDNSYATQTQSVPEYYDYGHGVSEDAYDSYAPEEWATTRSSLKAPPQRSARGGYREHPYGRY
B4: Abl interactor 2 (Homo sapiens), Q9NYB9 (parent)
chain: MAELQMLLEEEIPGGRRALFDSYTNLERVADYCENNYIQSADKQRALEETKAYTTQSLASVAYLINTLANNVLQMLDIQASQLRRMESSINHISQTVDIHKEKVARREIGILTTNKNTSRTHKIIAPANLERPVRYIRKPIDYTILDDIGHGVKWLLRFKVSTQNMKMGGLPRTTPPTQKPPSPPMSGKGTLGRHSPYRTLEPVRPPVVPNDYVPSPTRNMAPSQQSPVRTASVNQRNRTYSSSGSSGGSHPSSRSSSRENSGSGSVGVPIAVPTPSPPSVFPAPAGSAGTPPLPATSASAPAPLVPATVPSSTAPNAAAGGAPNLADGFTSPTPPVVSSTPPTGHPVQFYSMNRPASRHTPPTIGGSLPYRRPPSITSQTSLQNQMNGGPFYSQNPVSDTPPPPPPVEEPVFDESPPPPPPPEDYEEEEAAVVEYSDPYAEEDPPWAPRSYLEKVVAIYDYTKDKEDELSFQEGAIIYVIKKNDDGWYEGVMNGVTGLFPGNYVESIMHYSE
partner: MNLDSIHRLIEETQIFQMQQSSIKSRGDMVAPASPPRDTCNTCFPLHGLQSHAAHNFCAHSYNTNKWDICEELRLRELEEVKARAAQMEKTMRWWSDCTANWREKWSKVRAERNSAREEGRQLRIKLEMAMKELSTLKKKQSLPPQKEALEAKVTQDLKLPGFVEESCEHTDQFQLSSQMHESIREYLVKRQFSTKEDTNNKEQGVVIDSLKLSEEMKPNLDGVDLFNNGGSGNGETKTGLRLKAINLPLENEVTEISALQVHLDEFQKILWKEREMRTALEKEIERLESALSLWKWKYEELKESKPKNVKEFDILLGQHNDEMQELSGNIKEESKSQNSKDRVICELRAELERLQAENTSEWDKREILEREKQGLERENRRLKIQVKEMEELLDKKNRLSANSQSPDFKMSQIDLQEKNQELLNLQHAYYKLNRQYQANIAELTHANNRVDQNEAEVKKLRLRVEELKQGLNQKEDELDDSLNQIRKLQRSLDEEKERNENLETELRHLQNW
B5: Late cornified envelope protein 1B (Homo sapiens), Q5T7P3 (parent)
chain: MSCQQNQQQCQPPPKCIPKCPPKCLTPRCPPKCPPKCPPVSSCCSVSSGGCCGSSSGGSCGSSSGGCCSSGGGGCCLSHHRRRRSHCHRPQSSGCCSQPSGGSSCCGGGSGQHSGGCC
partner: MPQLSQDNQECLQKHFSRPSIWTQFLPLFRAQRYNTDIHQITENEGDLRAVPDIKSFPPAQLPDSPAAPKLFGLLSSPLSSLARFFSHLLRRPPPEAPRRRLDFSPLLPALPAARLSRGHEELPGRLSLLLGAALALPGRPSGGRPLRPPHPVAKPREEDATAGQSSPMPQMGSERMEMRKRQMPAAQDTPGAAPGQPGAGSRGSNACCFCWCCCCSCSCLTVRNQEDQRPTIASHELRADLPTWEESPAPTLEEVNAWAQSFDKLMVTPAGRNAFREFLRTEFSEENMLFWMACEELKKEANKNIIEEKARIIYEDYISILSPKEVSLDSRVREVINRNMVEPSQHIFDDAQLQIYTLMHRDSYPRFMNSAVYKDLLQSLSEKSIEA
B6: Pre-B-cell leukemia transcription factor-interacting protein 1 (Homo sapiens), Q96AQ6 (parent)
chain: MASCPDSDNSWVLAGSESLPVETLGPASRMDPESERALQAPHSPSKTDGKELAGTMDGEGTLFQTESPQSGSILTEETEVKGTLEGDVCGVEPPGPGDTVVQGDLQETTVVTGLGPDTQDLEGQSPPQSLPSTPKAAWIREEGRCSSSDDDTDVDMEGLRRRRGREAGPPQPMVPLAVENQAGGEGAGGELGISLNMCLLGALVLLGLGVLLFSGGLSESETGPMEEVERQVLPDPEVLEAVGDRQDGLREQLQAPVPPDSVPSLQNMGLLLDKLAKENQDIRLLQAQLQAQKEELQSLMHQPKGLEEENAQLRGALQQGEAFQRALESELQQLRARLQGLEADCVRGPDGVCLSGGRGPQGDKAIREQGPREQEPELSFLKQKEQLEAEAQALRQELERQRRLLGSVQQDLERSLQDASRGDPAHAGLAELGHRLAQKLQGLENWGQDPGVSANASKAWHQKSHFQNSREWSGKEKWWDGQRDRKAEHWKHKKEESGRERKKNWGGQEDREPAGRWKEGRPRVEESGSKKEGKRQGPKEPPRKSGSFHSSGEKQKQPRWREGTKDSHDPLPSWAELLRPKYRAPQGCSGVDECARQEGLTFFGTELAPVRQQELASLLRTYLARLPWAGQLTKELPLSPAFFGEDGIFRHDRLRFRDFVDALEDSLEEVAVQQTGDDDEVDDFEDFIFSHFFGDKALKKRSGKKDKHSQSPRAAGPREGHSHSHHHHHRG
B7: Abl interactor 2 (Homo sapiens), Q9NYB9 (parent)
chain: B4 chain
partner: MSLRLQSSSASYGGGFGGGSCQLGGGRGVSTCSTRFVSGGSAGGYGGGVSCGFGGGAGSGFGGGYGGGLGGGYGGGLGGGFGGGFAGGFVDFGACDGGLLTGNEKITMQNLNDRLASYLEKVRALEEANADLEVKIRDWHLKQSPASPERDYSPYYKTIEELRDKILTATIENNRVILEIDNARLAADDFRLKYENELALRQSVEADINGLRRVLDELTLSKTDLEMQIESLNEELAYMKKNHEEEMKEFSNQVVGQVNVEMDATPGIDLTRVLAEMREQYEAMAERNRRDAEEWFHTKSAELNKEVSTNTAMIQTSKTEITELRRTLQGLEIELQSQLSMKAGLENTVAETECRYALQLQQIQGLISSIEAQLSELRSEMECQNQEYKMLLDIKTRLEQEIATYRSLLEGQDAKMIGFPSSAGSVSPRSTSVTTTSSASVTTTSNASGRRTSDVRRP
B8: Consortin (Homo sapiens), Q6PJW8 (parent)
chain: MDDSDTPTYYLQIEPQDGCHPGDSVERSVTCLPSASDENENQLDGDGHEHLTSSDSAMGKPQVSEQDSLNNNESCTLSCEVAAGENLQNTLCEASRDEQAFLGKDKKIPGKRSPRSKKGTAKKIPPGLFSGDIAPLMQEKVLSAVTYAVDDEEAAEVNANEQPEAPKLVLQSLFSLIRGEVEQLDSRALPLCLHQIAESYFQEEDYEKAMKFIQLERLYHEQLLANLSAIQEQWETKWKTVQPHTVTALRNSEKGFNGEDFERLTKICATHQDPLLSKHKIAAVEKSQERKCSTQLLVSEDPKEGGATTKESESKTCLGTESSKESQHTVEPLGSSPCCHQMDVQTDSPSLSVTAGKDHMEELLCSAEATLALHTQSSETAGSPSGPDSSEDACEDDSRLQLAQTEACQDVARIEGIAEDPKVFLSSKSKTEPLISPGCDRIPPALISEGKYSQAQRKELRLPLRDASEALPTDQLENNELNELQQPDLTDSDGKSPQAQADSDGSENVLCGNNQISDLGILLPEVCMAPEEKGDKDDQLNKETEDYLNSLLEGCLKDTEDSLSYEDNQDDDSDLLQDLSPEEASYSLQENLPSDESCLSLDDLAKRIEIAEVVPTEGLVSILKKRNDTVGDHPAQMQHKPSKRRVRFQEIDDSLDQDEVGGGSCILLVLLCIATVFLSVGGTALYCTFGDMESPVCTDFADNMDFYYTKLLQGVAELKHWIYLS
B9: E3 ubiquitin-protein ligase LNX (Homo sapiens), Q8TBB1 (parent)
chain: MNQPESANDPEPLCAVCGQAHSLEENHFYSYPEEVDDDLICHICLQALLDPLDTPCGHTYCTLCLTNFLVEKDFCPMDRKPLVLQHCKKSSILVNKLLNKLLVTCPFREHCTQVLQRCDLEHHFQTSCKGASHYGLTKDRKRRSQDGCPDGCASLTATAPSPEVSAAATISLMTDEPGLDNPAYVSSAEDGQPAISPVDSGRSNRTRARPFERSTIRSRSFKKINRALSVLRRTKSGSAVANHADQGRENSENTTAPEVFPRLYHLIPDGEITSIKINRVDPSESLSIRLVGGSETPLVHIIIQHIYRDGVIARDGRLLPGDIILKVNGMDISNVPHNYAVRLLRQPCQVLWLTVMREQKFRSRNNGQAPDAYRPRDDSFHVILNKSSPEEQLGIKLVRKVDEPGVFIFNVLDGGVAYRHGQLEENDRVLAINGHDLRYGSPESAAHLIQASERRVHLVVSRQVRQRSPDIFQEAGWNSNGSWSPGPGERSNTPKPLHPTITCHEKVVNIQKDPGESLGMTVAGGASHREWDLPIYVISVEPGGVISRDGRIKTGDILLNVDGVELTEVSRSEAVALLKRTSSSIVLKALEVKEYEPQEDCSSPAALDSNHNMAPPSDWSPSWVMWLELPRCLYNCKDIVLRRNTAGSLGFCIVGGYEEYNGNKPFFIKSIVEGTPAYNDGRIRCGDILLAVNGRSTSGMIHACLARLLKELKGRITLTIVSWPGTFL
partner: B1 partner
B10: Abl interactor 2 (Homo sapiens), Q9NYB9 (parent)
chain: B4 chain
partner: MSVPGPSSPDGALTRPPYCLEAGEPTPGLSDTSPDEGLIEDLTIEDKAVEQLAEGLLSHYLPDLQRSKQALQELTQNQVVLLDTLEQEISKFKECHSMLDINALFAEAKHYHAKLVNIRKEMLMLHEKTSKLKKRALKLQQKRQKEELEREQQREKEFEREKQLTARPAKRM

Variants of: B1
Conditions: with FAM118A

Row | effect of a mutation on the interaction | Variant
1 | disrupting interaction strength | I173F

Variants of: B2
Conditions: with tri23_human TRIM23, P36406
tri23_human TRIM23, P36406, sequence (P36406 whole entry): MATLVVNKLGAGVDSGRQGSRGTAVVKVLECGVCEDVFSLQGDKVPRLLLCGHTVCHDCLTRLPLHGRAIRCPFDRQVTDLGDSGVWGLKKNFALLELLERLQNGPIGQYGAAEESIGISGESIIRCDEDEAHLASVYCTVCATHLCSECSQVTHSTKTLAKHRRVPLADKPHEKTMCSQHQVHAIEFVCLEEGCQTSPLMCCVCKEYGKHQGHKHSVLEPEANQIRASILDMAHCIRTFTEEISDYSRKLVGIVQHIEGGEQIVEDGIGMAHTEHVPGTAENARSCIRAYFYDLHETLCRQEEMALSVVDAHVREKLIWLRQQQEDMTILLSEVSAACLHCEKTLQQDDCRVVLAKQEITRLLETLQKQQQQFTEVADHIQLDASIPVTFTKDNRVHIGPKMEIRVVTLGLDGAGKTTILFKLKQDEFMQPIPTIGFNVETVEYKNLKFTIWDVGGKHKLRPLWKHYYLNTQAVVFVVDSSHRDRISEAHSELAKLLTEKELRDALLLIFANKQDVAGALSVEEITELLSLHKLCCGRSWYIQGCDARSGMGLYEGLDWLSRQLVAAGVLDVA

Row | effect of a mutation on the interaction | Variant
2 | with no effect | P34S

Variants of: B3
Conditions: with khdr2_human KHDRBS2, Q5VWX1

Row | effect of a mutation on the interaction | Variant
3 | with no effect | R145H

Variants of: B4
Conditions: with CCDC102B

Row | effect of a mutation on the interaction | Variant
4 | with no effect | R373C

Variants of: B4
Conditions: with CCDC102B
Remark: another data set of the same source

Row | effect of a mutation on the interaction | Variant
5 | with no effect | E202K

Variants of: B5
Conditions: with rgs20_human RGS20, O76081

Row | effect of a mutation on the interaction | Variant
6 | with no effect | C16Y

Variants of: B6
Conditions: with mdfi_human MDFI

Row | effect of a mutation on the interaction | Variant
7 | with no effect | V238M

Variants of: B7
Conditions: with KRT13, P13646

Row | effect of a mutation on the interaction | Variant
8 | with no effect | R373C

Variants of: B7
Conditions: with KRT13, P13646
Remark: another data set of the same source

Row | effect of a mutation on the interaction | Variant
9 | with no effect | E202K

Variants of: B8
Conditions: with rop1a_human ROPN1, Q9HAT0
rop1a_human ROPN1, Q9HAT0, sequence (Q9HAT0 whole entry): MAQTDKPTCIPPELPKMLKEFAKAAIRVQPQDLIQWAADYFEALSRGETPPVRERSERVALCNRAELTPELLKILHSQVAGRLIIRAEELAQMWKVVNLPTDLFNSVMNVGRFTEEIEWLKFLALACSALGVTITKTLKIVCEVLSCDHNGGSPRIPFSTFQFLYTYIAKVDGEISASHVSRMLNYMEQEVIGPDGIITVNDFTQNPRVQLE

Row | effect of a mutation on the interaction | Variant
10 | disrupting interaction strength | V25M

Variants of: B9
Conditions: with FAM118A

Row | effect of a mutation on the interaction | Variant
11 | disrupting interaction strength | E295K

Variants of: B10
Conditions: with bl1s6_human BLOC1S6, Q9UL45

Row | effect of a mutation on the interaction | Variant
12 | with no effect | R373C
